Results reported in the supplement of paper PMC9876800.

Tested on: peptide library, one residue held at a place counted from the S/T acceptor
Assay: relative phosphorylation of the sub-library (ratio to the mean residue at this position); higher = residue favoured
Method in brief: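 Relative sub-library phosphorylation is a ratio to the mean residue at the same position. Purified recombinant kinases were incubated under kinase-specific conditions with biotinylated degenerate peptide sub-libraries, each fixing one residue at one position around a central Ser/Thr, using 50 μM peptide and 50 μM ATP spiked with γ-32P-ATP for 90 min. Spots captured on streptavidin membranes were phosphorimaged and quantified by densitometry.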

Chain of GRK3, construct: Full length, human (P35626 whole entry, looked up): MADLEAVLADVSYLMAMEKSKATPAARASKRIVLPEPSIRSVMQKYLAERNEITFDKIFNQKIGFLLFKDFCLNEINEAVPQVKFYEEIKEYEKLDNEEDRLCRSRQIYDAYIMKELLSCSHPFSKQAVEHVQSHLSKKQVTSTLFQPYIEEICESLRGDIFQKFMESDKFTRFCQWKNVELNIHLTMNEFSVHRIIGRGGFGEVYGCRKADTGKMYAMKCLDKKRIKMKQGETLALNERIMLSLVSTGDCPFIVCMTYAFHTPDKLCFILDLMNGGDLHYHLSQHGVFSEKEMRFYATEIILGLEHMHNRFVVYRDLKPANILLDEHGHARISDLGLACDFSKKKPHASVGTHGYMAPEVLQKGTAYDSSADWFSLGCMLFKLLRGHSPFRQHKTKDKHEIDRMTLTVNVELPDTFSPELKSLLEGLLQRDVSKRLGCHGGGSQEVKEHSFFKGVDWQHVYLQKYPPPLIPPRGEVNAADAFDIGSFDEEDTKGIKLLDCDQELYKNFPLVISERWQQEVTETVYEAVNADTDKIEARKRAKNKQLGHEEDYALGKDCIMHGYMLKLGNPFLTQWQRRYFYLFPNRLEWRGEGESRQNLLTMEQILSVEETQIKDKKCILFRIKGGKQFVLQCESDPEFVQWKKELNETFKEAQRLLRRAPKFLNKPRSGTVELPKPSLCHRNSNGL

PRKCD, construct: Full length, human (from UniProt Q05655)
relative phosphorylation
Conditions | at +1 | at +2 | at +3 | at +4 | at -1 | at -2 | at -3 | at -4 | at -5
A fixed | 0.496 | 0.437 | 0.73 | 0.842 | 0.91 | 0.9 | 0.795 | 1.04 | 1.04
D fixed | 0.253 | 0.525 | 0.696 | 1.03 | 0.598 | 0.587 | 0.699 | 0.932 | 1.2
E fixed | 0.309 | 0.317 | 0.608 | 0.63 | 0.465 | 0.531 | 0.579 | 0.972 | 0.903
F fixed | 1.51 | 0.438 | 0.642 | 0.4 | 0.549 | 0.621 | 0.594 | 0.703 | 0.815
G fixed | 0.553 | 0.459 | 1.11 | 1.28 | 1.64 | 1.2 | 0.977 | 1.36 | 1.18
H fixed | 0.803 | 1.39 | 0.871 | 1.23 | 0.961 | 1.13 | 1.17 | 1.14 | 1.07
I fixed | 1.65 | 0.64 | 0.781 | 0.695 | 0.355 | 0.466 | 0.401 | 0.617 | 0.809
K fixed | 1.74 | 3.33 | 2.15 | 2.05 | 2.3 | 1.9 | 1.91 | 1.55 | 1.48
L fixed | 1.21 | 0.564 | 0.846 | 0.757 | 0.658 | 0.506 | 0.464 | 0.608 | 0.78
M fixed | 1.58 | 0.69 | 0.801 | 0.731 | 0.852 | 0.677 | 0.576 | 0.807 | 0.657
N fixed | 0.685 | 1 | 1.04 | 1.13 | 1.38 | 1.22 | 1.07 | 1.1 | 0.932
P fixed | 0.343 | 0.487 | 0.68 | 1.54 | 1.29 | 0.835 | 1.12 | 1.18 | 1.17
Q fixed | 1.18 | 0.93 | 1.04 | 1.19 | 1.35 | 1.23 | 1.01 | 0.979 | 0.868
R fixed | 1.6 | 3.33 | 2.03 | 1.48 | 1.74 | 3.16 | 3.86 | 1.58 | 1.65
V fixed | 1.39 | 0.648 | 0.742 | 0.65 | 0.583 | 0.522 | 0.406 | 0.691 | 0.769
W fixed | 0.743 | 0.741 | 1.12 | 0.746 | 0.527 | 0.806 | 0.658 | 1.1 | 0.993
Y fixed | 0.961 | 1.07 | 1.11 | 0.625 | 0.834 | 0.713 | 0.707 | 0.638 | 0.685
pThr fixed | 0.685 | 0.458 | 0.52 | 0.675 | 0.341 | 0.563 | 0.624 | 0.713 | 0.644
pTyr fixed | 0.469 | 0.662 | 0.56 | 0.396 | 0.465 | 0.576 | 0.541 | 0.524 | 0.673

GRK3, construct: Full length, human (from UniProt P35626)
relative phosphorylation
Conditions | at +1 | at +2 | at +3 | at +4 | at -1 | at -2 | at -3 | at -4 | at -5
A fixed | 0.782 | 1.39 | 0.849 | 0.868 | 0.913 | 0.745 | 0.971 | 1 | 1.03
D fixed | 1.07 | 0.888 | 1.9 | 1.5 | 1.25 | 1.53 | 2.52 | 1.73 | 1.39
E fixed | 1.75 | 0.887 | 1.99 | 1.36 | 1.62 | 4.07 | 3.01 | 1.78 | 1.2
F fixed | 1.36 | 1.18 | 0.882 | 0.855 | 0.914 | 0.895 | 0.666 | 0.868 | 1.1
G fixed | 0.857 | 0.967 | 1.04 | 1 | 0.703 | 0.784 | 0.822 | 0.962 | 0.9
H fixed | 0.973 | 1.22 | 1.03 | 1.06 | 1.06 | 0.755 | 0.631 | 0.892 | 0.929
I fixed | 1.27 | 1.44 | 0.933 | 1.1 | 0.913 | 0.573 | 0.649 | 0.855 | 1.06
K fixed | 0.51 | 0.51 | 0.614 | 0.725 | 0.658 | 0.59 | 0.629 | 0.843 | 0.824
L fixed | 0.766 | 0.705 | 0.898 | 0.829 | 0.979 | 0.688 | 0.604 | 0.844 | 1.03
M fixed | 1.24 | 0.904 | 0.979 | 0.994 | 1.05 | 0.746 | 0.68 | 1 | 0.964
N fixed | 0.742 | 0.874 | 0.922 | 1.03 | 1.02 | 0.854 | 0.845 | 0.932 | 0.946
P fixed | 0.477 | 0.495 | 0.638 | 1.01 | 1.4 | 0.833 | 0.907 | 0.974 | 0.788
Q fixed | 1.03 | 0.781 | 0.712 | 0.877 | 0.843 | 0.733 | 0.663 | 0.83 | 0.758
R fixed | 0.646 | 0.614 | 0.631 | 0.709 | 0.819 | 1.13 | 1.6 | 1.1 | 0.933
V fixed | 1.55 | 1.71 | 0.862 | 0.843 | 1.15 | 0.612 | 0.603 | 0.729 | 0.893
W fixed | 0.93 | 0.948 | 0.922 | 1.25 | 0.595 | 0.657 | 0.592 | 0.815 | 1.02
Y fixed | 1.03 | 1.48 | 1.2 | 0.992 | 1.12 | 0.794 | 0.605 | 0.847 | 1.23
pThr fixed | 7.07 | 1.13 | 1.13 | 2.86 | 1.38 | 5.37 | 5.68 | 2.74 | 1.72
pTyr fixed | 3.27 | 1.99 | 2.21 | 1.72 | 3.26 | 18.2 | 6.04 | 3.04 | 2.78
